Measured values taken from patent publication US20240239878A1 (SHANGHAI QILU PHARMACEUTICAL RESEARCH AND DEVELOPMENT CENTRE, published 2024).
Where a chain is given by its changes, count along the chain named.

T1: human DLL3 on SHP-77 cells (human, UniProt Q9NYJ7 27-618)
T1 construct: also called DLL3-expressing cells (SHP-77)
T1 sequence: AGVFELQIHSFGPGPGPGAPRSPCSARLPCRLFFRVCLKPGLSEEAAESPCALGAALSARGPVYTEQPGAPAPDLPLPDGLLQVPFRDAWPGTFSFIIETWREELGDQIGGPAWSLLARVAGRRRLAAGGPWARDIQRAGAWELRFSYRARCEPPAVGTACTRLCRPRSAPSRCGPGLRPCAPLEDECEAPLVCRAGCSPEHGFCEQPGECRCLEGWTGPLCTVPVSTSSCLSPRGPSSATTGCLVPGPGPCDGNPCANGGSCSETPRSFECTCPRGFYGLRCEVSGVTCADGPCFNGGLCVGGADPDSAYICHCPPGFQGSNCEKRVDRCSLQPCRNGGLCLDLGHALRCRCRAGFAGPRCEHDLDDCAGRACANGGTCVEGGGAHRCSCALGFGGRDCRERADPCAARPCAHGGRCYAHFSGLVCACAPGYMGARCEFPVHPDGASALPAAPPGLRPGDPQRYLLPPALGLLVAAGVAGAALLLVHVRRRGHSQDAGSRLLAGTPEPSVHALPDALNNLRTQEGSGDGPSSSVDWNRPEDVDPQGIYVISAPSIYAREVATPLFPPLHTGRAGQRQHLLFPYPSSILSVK

T2: Cynomolgus monkey DLL3 on HEK293 cells (HEK293-cyno DLL3) (Cynomolgus monkey, UniProt Q9NYJ7 27-618 (human entry))
T2 chain: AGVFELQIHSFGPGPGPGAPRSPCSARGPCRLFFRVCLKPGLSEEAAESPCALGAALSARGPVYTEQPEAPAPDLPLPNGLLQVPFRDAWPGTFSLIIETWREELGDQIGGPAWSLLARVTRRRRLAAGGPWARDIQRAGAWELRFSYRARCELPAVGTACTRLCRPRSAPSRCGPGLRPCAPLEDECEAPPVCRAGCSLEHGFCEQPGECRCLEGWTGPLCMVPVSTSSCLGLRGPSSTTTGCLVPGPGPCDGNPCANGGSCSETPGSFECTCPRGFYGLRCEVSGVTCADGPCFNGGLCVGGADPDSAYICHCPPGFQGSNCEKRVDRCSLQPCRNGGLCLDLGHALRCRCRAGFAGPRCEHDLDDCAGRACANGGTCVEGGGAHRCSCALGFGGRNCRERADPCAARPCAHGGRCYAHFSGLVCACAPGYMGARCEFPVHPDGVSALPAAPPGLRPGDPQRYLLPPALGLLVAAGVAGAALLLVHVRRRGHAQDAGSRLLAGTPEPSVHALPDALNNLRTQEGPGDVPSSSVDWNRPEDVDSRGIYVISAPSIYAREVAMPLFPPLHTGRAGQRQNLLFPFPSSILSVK

B1: 46A5A4 mouse hybridoma-derived anti-DLL3 chimeric antibody (antibody, V domains shown)
VH: QVQLQQSDAELVKPGASVKISCKVSGYTFTDHTIHWMKQRPEQGLEWIGYIYPRDGYTMYNEKFKGKATLTADKSSSTAYMQLNSLTSEDSAVHFCARAFHALDYWGQGTSVTVSS
VL: DIQMTQTTSSLSASLGDRVTFTCSASQGISNYLNWYQQKPDGTIKLLIYYTSSLHSGVPSRFSGSGSGTDYSLTISNLEPEDIATYYCQQYSKLPYTFGGGTKLEIK
B2: 39E2D11-1 mouse hybridoma-derived anti-DLL3 chimeric antibody (antibody, V domains shown)
VH: QVQLQQSGAELVKPGASVKMSCKASGYTFISYWITWVKQRPGQGLEWIGDIYPGSGSTTNYNEKFKSKATLTVDTSSSTAYMQLSSLTSEDSAVYYCARETTVGGAYAMDYWGQGTSVTVSS
VL: DIVLTQSPATLSVTPGDSVSLSCRASQSINNNLHWYQQKSHESPRLLIKYVSQSISGIPSRFSGSGSGTDFTLTINSVETEDFGMYFCQQTNSWPLTFGAGTKLELK
B3: 45E4D7 mouse hybridoma-derived anti-DLL3 chimeric antibody (antibody, V domains shown)
VH: QVQLQQPGAELVKPGTSVKLSCKASGYTFTSHWITWVKQRPGQGLEWIGDIYPISGSTNNNEKFRNKATLTVDTSSSTAYMQLSSLTSEDSAVYFCAKIITVGGAYVMDYWGQGTSVTVSS
VL: B2 VL with A9V, I29V, N30R, T74S, M85V, T91S
B4: H1-39E2D11 mouse hybridoma-derived humanized anti-DLL3 antibody (antibody, V domains shown)
VH: QVQLVQSGAEVKKPGASVKVSCKASGYTFISYWITWVRQAPGQGLEWMGDIYPGSGSTTNYNEKFKSRVTMTRDTSTSTVYMELSSLRSEDTAVYYCARETTVGGAYAMDYWGQGTLVTVSS
VL: EIVLTQSPATLSLSPGERATLSCRASQSINNNLHWYQQKPGQAPRLLIYYVSQSISGIPARFSGSGSGTDFTLTISSLEPEDFAVYYCQQTNSWPLTFGGGTKLEIK
B5: H1-45E4D7 mouse hybridoma-derived humanized anti-DLL3 antibody (antibody, V domains shown)
VH: QVQLVQSGAEVKKPGASVKVSCKASGYTFTSHWITWVRQAPGQGLEWMGDIYPISGSTNNNEKFRNRVTMTRDTSTSTVYMELSSLRSEDTAVYYCAKIITVGGAYVMDYWGQGTLVTVSS
VL: B4 VL with L4M, L13V, I29V, N30R, D70E, E79Q, P80S, T91S
B6: 26C4D2 mouse hybridoma-derived anti-DLL3 chimeric antibody (antibody, V domains shown)
VH: QVQLQQPGAELVKPGASVKLSCKASGYSFTSYWMHWVKQRPGQGLEWIGMIHPTLGDTNYNEKFKSKATLTVDKSSSTAYMELSSLTSEDSAVYYCARLGSLSMMDYWGQGTSVTVSS
VL: B1 VL with F21I, T22S, I44V, S60A, T85I, L94F
B7: 48B6D7 mouse hybridoma-derived anti-DLL3 chimeric antibody (antibody, V domains shown)
VH: QVQLQQPGAELVKPGTSVKLSCEASGYTFSNYWMQWVRQRPGQGLEWIGMILPNSDITNYNENFQTKATLTVDKSSSTAYMQLSSLTSEDSAVYYCARQARYSAMDYWGQGTSVTVSS
VL: B1 VL with A13V, F21I, T22N, I44V, S53N, Q90H, L94F
B8: 27E10C5 mouse hybridoma-derived anti-DLL3 chimeric antibody (antibody, V domains shown)
VH: QVQLQQSGAELVKPGASVKISCKASGYAFSSQWMNWVKQRPGKGLEWIGQIYPGNGDTNYNGKFKGKATLTADKSSSTAYIQLSSLTSEDSAVYFCARWFAYWGQGTLVTVSA
VL: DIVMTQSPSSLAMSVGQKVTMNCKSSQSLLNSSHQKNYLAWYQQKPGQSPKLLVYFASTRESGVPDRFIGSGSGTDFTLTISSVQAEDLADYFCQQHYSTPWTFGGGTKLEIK

These binders were tested against T1, human DLL3 on SHP-77 cells (assay: flow cytometry, SHP-77 cells).
Protocol: SHP-77 cells were cultured. The culture medium for SHP-77 cells was RPMI1640+10% FBS. The cells were cultured in a T75 cell culture flask at a 37° C. 5% CO₂ incubator. When using cells, they are washed with sterile DPBS, digested with 0.25% trypsin EDTA for about 5 minutes, and then stopped with a complete medium.
(§1) The digested cells were centrifuged at 1000 rpm for 5 min at room temperature. The supernatant was discarded and the cells were resuspended in 100 μL of 1% BSA (in PBS). The cells were counted and adjusted to a cell density of 1E6/m. The dilute cells were plated in a 96-well round-bottom culture plate (corning 3799), and centrifuged at 1500 rpm for 5 min at 4° C. The supernatant was discarded and the cells were stored at 4° C. until use. Antibody samples to be tested were diluted with 1% BSA (in PBS) at a starting concentration of 100 nM, downwards by a 10-fold gradient for 7 concentrations. The cells were resuspended with the diluted antibody at 100 μL/well and incubated for 1 hour at 4° C. The cells were centrifuged at 1500 rpm for 5 minutes at 4° C. and the supernatant was discarded. The cells were resuspended and washed with 160 μL of 1% BSA (in PBS), centrifuged at 1500 rpm for 5 minutes at 4° C. The supernatant was discarded. The secondary antibody (goat anti human IgG Fc PE) was diluted 1:200 with 1% BSA (in PBS) according to the manufacturer's instructions and the cells were resuspended with the diluted secondary antibody, 100 µL/well, and incubated for 0.5 h at 4° C. The cells were centrifuged at 1500 rpm for 5 minutes at 4° C. and the supernatant was discarded. The cells were resuspended and washed with 160 μL of 1% BSA (in PBS), centrifuged at 1500 rpm for 5 minutes at 4° C. The supernatant was discarded. The cells were resuspended in 100 μL of 1% BSA (in PBS), and filtered across a 300 mesh gauze. The mean fluorescence intensity of the PE channels was measured by flow cytometry.
(§2) The analyzed mean fluorescence intensity was imported into Graphpad to analyze the median-binding concentration (hereinafter referred to as EC50) of antibody and cell and the top mean fluorescence intensity (Top MFI).
With B1 the EC50 was 1.2 nM and the “Top MFI” value was 1570 MFI.
With B2 the EC50 was 1.49 nM and the “Top MFI” value was 1650 MFI.
With B3 the EC50 was 0.894 nM and the “Top MFI” value was 1560 MFI.
In the case of B4, the EC50 is reported as 2.13 nM and the “Top MFI” value is reported as 1430 MFI.
In the case of B5, the EC50 is reported as 5.16 nM and the “Top MFI” value is reported as 1590 MFI.

Molecular target: T1, human DLL3 on SHP-77 cells
Assay: flow cytometry, SHP-77 cells
Remark: another data set of the same source
Protocol: (§3) SHP-77 and HEK293-cyno DLL3 cells were cultured. The culture medium for SHP-77 cells were RPMI1640+10% FBS, and the culture medium for HEK293 cyno DLL3 cells was DMEM+10% FBS+200 μg/ml Hygromycin. The cells were cultured in a T75 cell culture flask at a 37° C. 5% CO₂ incubator. When using cells, they are washed with sterile DPBS, digested with 0.25% trypsin EDTA for about 5 minutes, and then stopped with a complete medium.
as §1, with “seeded” for “plated”, “antibody.” for “antibody,”
as §2
B6 was tested, and the EC50 was 0.6 nM and the “Top MFI” value was 1050 MFI.
For B1, the EC50 was 1.18 nM and the “Top MFI” value was 1010 MFI.
B7 was tested, and the EC50 was 0.65 nM and the “Top MFI” value was 990 MFI.
B2 was tested, and the EC50 was 0.85 nM and the “Top MFI” value was 999 MFI.
B3 was tested, and the EC50 was 0.68 nM and the “Top MFI” value was 965 MFI.
In the case of B8, the EC50 is reported as 1.2 nM and the “Top MFI” value is reported as 813 MFI.

Molecular target: T2, Cynomolgus monkey DLL3 on HEK293 cells …
Assay: flow cytometry, HEK293-cyno DLL3 cells
Protocol: as §3
as §1, with “seeded” for “plated”, “antibody.” for “antibody,”
as §2
With B6 the EC50 was 0.43 nM and the “Top MFI” value was 421 MFI.
In the case of B1, the EC50 is reported as 0.67 nM and the “Top MFI” value is reported as 475 MFI.
With B7 the EC50 was 0.53 nM and the “Top MFI” value was 480 MFI.
For B2, the EC50 was 1.03 nM and the “Top MFI” value was 445 MFI.
In the case of B3, the EC50 is reported as 0.71 nM and the “Top MFI” value is reported as 454 MFI.
B8 was tested, and the EC50 was 1.39 nM and the “Top MFI” value was 396 MFI.
